This note sets out measurements from paper PMC6685440.

Positions count from the first letter of the chain named. In names and notes the source's numbering stands.

The target in the experiment is Heavy meromyosin (HMM). Description: far-Western, overlay or dot blot.

B1: GST-tagged NH2-terminal region of slow myosin binding protein-C (Pro/Ala-rich motif, Ig C1 and M-motif), Y247H (domain or fragment)
chain: MPEPTKKEENEVPAPAPPPEEPSKEKEAGTTPAKDEEEVSPPSALPPGLGSRALERKDSDWTLVETPPGEEQAKQNANSQLSILFIEKPQGGTVKVGEDITFIAKVKAEDLLRKPTIKWFKGKWMDLASKAGKHLQLKETFERHSRVYTFEMQIIKAKDNFAGNYRCEVTYKDKFDSCSFDLEVHESTGTTPNIDIRSAFKRSGEGQEDAGELDFSGLLKRREVKQQEEEPQVDVWELLKNAKPSEHEKIAFQYGITDLRGMLKRLKRMRREEKKSAAFAKILD
In turn, B1 showed a fold binding against wild type of 2 fold.

B2: GST-tagged NH2-terminal region of slow myosin binding protein-C (Pro/Ala-rich motif, Ig C1 and M-motif), E248K (domain or fragment)
chain: B1 chain with H247Y, E248K
In turn, B2 came in with a fold binding against wild type of 3.5 fold.
